{"source": "patent US7838231", "about": "(REGENTS OF THE UNIVERSITY OF MICHIGAN, dated 2010)", "binders": {"B1": {"name": "full-length human nephrocystin-5 (NPHP5), yeast two-hybrid fusion (other, not shown: small tags and cut ends)", "chain": "MKPTGTDPRILSIAAEVAKSPEQNVPVILLKLKEIINITPLGSSELKKIKQDIYCYDLIQYCLLVLSQDYSRIQGGWTTISQLTQILSHCCVGLEPGEDAEEFYNELLPSAAENFLVLGRQLQTCFINAAKAEEKDELLHFFQIVTDSLFWLLGGHVELIQNVLQSDHFLHLLQADNVQIGSAVMMMLQNILQINSGDLLRIGRKALYSILDEVIFKLFSTPSPVIRSTATKLLLLMAESHQEILILLRQSTCYKGLRRLLSKQETGTEFSQELRQLVGLLSPMVYQEVEEQKLHQAACLIQAYWKGFQTRKRLKKLPSAVIALQRSFRSKRSKMLLEINRQKEEEDLKLQLQLQRQRAMRLSRELQLSMLEIVHPGQVEKHYREMEEKSALNIQKHWRGYRERKNFHQQRQSLIEYKAAVTLQRAALKFLAKCRKKKKLFAPWRGLQELTDARRVELKKRVDDYVRRHLGSPMSDVVSRELHAQAQERLQHYFMGRALEERAQQHREALIAQISTNVEQLMKAPSLKEAEGKEPELFLSRSRPVAAKAKQAHLTTLKHIQAPWWKKLGEESGDEIDVPKDELSIELENLFIGGTKPP", "notes": "Full-length NPHP5 cDNA (598 amino acid residues) fused to a GAL4 domain; also called KIAA0036"}}, "key": {"[1]": {"target": "T1, BBS7, human full length, yeast two-hybrid prey (human, UniProt Q8IWZ6 1-715)", "T1 sequence (looked up)": "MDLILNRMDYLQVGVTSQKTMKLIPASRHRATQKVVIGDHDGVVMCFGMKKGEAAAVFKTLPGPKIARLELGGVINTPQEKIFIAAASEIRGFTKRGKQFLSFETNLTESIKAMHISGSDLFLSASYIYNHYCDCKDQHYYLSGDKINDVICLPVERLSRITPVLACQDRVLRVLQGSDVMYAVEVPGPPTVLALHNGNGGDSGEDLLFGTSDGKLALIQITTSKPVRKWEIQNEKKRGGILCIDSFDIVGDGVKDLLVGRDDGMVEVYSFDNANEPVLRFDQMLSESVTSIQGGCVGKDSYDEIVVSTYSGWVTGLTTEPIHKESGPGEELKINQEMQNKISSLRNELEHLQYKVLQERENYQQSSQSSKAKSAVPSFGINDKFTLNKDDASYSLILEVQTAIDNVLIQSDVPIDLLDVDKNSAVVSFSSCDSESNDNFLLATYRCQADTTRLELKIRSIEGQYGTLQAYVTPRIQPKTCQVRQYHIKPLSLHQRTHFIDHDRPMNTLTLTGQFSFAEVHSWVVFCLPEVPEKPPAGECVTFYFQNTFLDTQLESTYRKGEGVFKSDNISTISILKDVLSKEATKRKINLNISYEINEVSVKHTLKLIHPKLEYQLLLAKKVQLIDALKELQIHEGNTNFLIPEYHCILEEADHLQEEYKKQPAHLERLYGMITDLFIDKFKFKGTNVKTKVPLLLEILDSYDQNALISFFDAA", "experiment": "direct yeast two-hybrid assay"}, "[2]": {"target": "T2, NPHP3, human full length, yeast two-hybrid prey (human, UniProt Q7Z494 1-1330)", "T2 sequence (looked up)": "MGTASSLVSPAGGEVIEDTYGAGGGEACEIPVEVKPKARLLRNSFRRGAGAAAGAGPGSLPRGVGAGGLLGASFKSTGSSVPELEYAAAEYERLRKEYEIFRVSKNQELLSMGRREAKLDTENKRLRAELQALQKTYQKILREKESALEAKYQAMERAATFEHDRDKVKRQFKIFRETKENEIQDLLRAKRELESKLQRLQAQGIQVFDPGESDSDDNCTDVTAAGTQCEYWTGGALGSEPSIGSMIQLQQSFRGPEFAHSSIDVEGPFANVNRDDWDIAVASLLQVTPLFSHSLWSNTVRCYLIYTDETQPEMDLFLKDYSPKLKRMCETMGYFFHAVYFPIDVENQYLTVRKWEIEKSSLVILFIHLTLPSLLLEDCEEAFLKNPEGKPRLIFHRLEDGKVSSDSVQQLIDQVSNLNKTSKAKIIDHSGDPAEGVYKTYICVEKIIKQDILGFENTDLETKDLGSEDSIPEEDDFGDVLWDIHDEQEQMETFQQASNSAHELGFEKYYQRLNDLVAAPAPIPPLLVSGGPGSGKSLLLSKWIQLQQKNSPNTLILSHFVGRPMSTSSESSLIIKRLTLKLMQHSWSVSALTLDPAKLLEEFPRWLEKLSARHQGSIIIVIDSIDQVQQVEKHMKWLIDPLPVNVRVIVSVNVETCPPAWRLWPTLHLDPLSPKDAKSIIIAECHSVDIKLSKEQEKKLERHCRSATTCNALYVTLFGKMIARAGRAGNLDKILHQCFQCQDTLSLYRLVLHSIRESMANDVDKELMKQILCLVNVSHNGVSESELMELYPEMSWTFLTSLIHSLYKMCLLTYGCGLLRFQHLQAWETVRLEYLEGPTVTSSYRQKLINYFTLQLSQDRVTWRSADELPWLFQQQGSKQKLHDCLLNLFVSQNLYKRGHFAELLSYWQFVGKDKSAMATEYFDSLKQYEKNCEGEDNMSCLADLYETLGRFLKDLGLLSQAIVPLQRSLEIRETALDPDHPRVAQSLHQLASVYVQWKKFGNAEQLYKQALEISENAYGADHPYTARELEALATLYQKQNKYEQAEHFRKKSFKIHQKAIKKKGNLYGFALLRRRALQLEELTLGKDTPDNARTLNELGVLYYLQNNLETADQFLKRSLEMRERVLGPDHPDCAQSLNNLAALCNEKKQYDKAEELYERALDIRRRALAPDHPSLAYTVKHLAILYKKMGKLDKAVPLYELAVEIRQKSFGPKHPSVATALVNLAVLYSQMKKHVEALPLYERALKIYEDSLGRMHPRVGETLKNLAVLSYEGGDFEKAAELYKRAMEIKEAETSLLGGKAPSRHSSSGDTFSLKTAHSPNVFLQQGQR", "experiment": "direct yeast two-hybrid assay"}}, "data": [{"binder": "B1", "values": [{"measurement": "binding result", "setting": "[1]", "result": "no binding"}, {"measurement": "binding result", "setting": "[2]", "result": "no binding"}]}]}
